From US20250215089A1 (HARBOUR BIOMED SHANGHAI, published 2025)
Numbering of substitutions follows the chain as printed. In names and notes the source's numbering stands. Several values for one entry are separate records, joined by “and”; a condition that tells them apart may be missing. Identical values can stand only once. Like-named read-outs stand apart in the source and are kept apart here. Blank lines part the entries; values can stand above or below the binder they belong to.

Assays:
human CD40 [1] = molecular target: T1, human CD40 (human, UniProt P25942 21-277); test: cell-based or functional assay
T1 sequence (P25942 21-277): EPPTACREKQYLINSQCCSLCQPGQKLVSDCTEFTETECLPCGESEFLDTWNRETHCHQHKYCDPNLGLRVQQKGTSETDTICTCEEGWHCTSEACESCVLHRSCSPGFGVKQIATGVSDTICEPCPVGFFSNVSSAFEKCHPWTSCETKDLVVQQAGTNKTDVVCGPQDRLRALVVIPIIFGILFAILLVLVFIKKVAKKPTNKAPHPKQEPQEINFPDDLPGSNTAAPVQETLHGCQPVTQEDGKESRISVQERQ

human CD40 [2] = molecular target: T1, human CD40; test: FACS, MDA-MB-231 cells
cynomolgus monkey CD40 = molecular target: T2, cynomolgus monkey CD40 (cynomolgus monkey); test: FACS, CHO-K1/cyCD40 cells
T2 construct: whole, on cells; also called cyCD40
Method in brief: (§1)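 Cells carrying bound test antibody were kept 1 h at 4° C in the dark, washed in cold PBS, then stained 30 min at 4° C with Alexa Fluor 488 goat anti-human IgG (H+L) (1:1000). Fluorescence signal was read by flow cytometry.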

human CD40 [3] = molecular target: T1, human CD40; test: FACS, Raji cells
Method in brief: as §1

cynomolgus monkey PD-L1 = molecular target: T3, cynomolgus monkey PD-L1 (cynomolgus monkey); test: FACS, CHO-K1/cyPD-L1 cells
T3 construct: whole, on cells; also called cyPD-L1
Method in brief: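 Binding of antibodies to PD-L1-expressing cells (1×10⁶ cells/mL in PBS/2% BSA), tested in 4-fold dilution series. Incubation 2 h at 4° C in the dark, then washes. Fluorescence read by flow cytometry.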

human CD40 [4] = molecular target: T1, human CD40; test: FACS, CHO-K1/hCD40 cells
Method in brief: as §1

human CD40 [5] = molecular target: T1, human CD40; test: FACS, Raji cells; remark: listed apart in the source
Experimental: The cells were incubated at 4° C. for 1 hours in the dark. After the incubation, the cells were rinsed twice by adding pre-chilled PBS at 100 μL/well, and centrifuged at 500 g at 4° C. for 5 minutes, and the supernatant was discarded. Then, a fluorescent secondary antibody (goat anti-human IgG (H+L) secondary antibody, Alexa Fluor® 488 conjugate, Invitrogen, #A11013, 1:1000 dilution) was added at 100 μL/well, and the cells were incubated at 4° C. for 30 minutes in the dark. The cells were washed twice with pre-chilled PBS at 200 μL/well, and centrifuged at 500 g at 4° C. for 5 minutes, and the supernatant was discarded. Finally, the cells were resuspended in pre-chilled PBS at 200 μL/well. The fluorescence signal values were read using a BD FACS CANTOII flow cytometer or ACEA NovoCyte flow cytometer, and the data were processed and analyzed using FlowJo v10 software (FlowJo, LLC).
(§2) Data processing and graphical analysis were performed using GraphPad Prism 8 software. The binding curve of the antibody to the target cell and parameters, such as EC₅₀ value were obtained by four-parameter nonlinear fitting.

human CD40 [6] = molecular target: T1, human CD40; test: cell-based or functional assay; remark: listed apart in the source
human CD40 [7] = molecular target: T1, human CD40; test: cell-based or functional assay; remark: listed apart in the source
human PD-L1 [8] = molecular target: T4, human PD-L1 (human, UniProt Q9NZQ7 19-290); test: FACS, CHO-K1/hPD-L1 cells
T4 construct: whole, on cells; also called hPD-L1; CD274
T4 sequence (Q9NZQ7 19-290): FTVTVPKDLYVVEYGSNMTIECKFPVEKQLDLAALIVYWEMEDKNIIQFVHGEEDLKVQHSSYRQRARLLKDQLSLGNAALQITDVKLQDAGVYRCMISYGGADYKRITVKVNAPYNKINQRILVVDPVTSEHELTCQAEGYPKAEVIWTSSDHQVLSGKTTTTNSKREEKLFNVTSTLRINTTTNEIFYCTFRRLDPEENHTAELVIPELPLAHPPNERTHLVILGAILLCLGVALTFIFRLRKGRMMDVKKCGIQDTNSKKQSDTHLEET
Experimental: Specifically, the cells expressing PD-L1 were digested and resuspended in PBS buffer containing 2% BSA. The cells were adjusted to a cell density of 1×10⁶ cells/mL, respectively. The cells were seeded in a 96-well V-bottom plate (Corning, #3894) at 100 μL/well, and the antibody to be tested at 2×final concentration with 4-fold concentration gradient dilution was then added at 100 μL/well. The cells were incubated at 4° C. for 2 hours in the dark. After the incubation, the cells were rinsed twice by adding pre-chilled PBS containing 2% BSA at 100 μL/well, and centrifuged at 500 g at 4° C. for 5 minutes, and the supernatant was discarded. […] The cells were washed twice by adding pre-chilled PBS containing 2% BSA at 100 µL/well, and centrifuged at 500 g at 4° C. for 5 minutes, and the supernatant was discarded. Finally, the cells were resuspended in pre-chilled PBS buffer containing 2% BSA at 200 μL/well. The fluorescence signal values were read using a BD FACS CANTOII flow cytometer or ACEA NovoCyte flow cytometer, and the data were processed and analyzed using FlowJo v10 software (FlowJo, LLC).
as §2

human PD-L1 [9] = molecular target: T4, human PD-L1; test: cell-based or functional assay

B2: PR003379 (antibody, human IgG2, kappa, V domains shown)
VH: QVQLVQSGAEVKKPGASVKVSCKASGYTFAGYYMYWVRQAPGQGLEWMGWINPDSGAPTYAQKFQGRVTMTRDTSISTAYMELSRLRSDDTAVYYCAREKIYYGSGNYYPSFDYWGQGTLVTVSS
VL: DIQLTQSPSFLSASVGDRVTITCRASQGISSYLAWYQQKPGKAPKLLIYAASTLQSGVPSRFSGSGSGTEFTLTISSLQPEDFATYYCQQLNSYPWTFGQGTKVEIKR
notes: also called clone 18C4A12-1B1
- EC50 (human CD40 [5]): 0.0699 nM
- Maximum MFI (human CD40 [5]): 3700 MFI
- EC50, HEK293-hCD40-NFκB reporter, crosslinked (CHO-K1/hCD32B) (human CD40 [6]): 0.178 nM
- EC50, HEK293-hCD40-NFκB reporter, uncrosslinked (CHO-K1) (human CD40 [6]): 0.369 nM
- Fold (EC50 in the absence of crosslinking/EC50 in the presence of crosslinking) (human CD40 [6]): 2.07 fold

B3: PR006495 (antibody, human IgG1, kappa, V domains shown)
VH: B2 VH
VL: B2 VL with N92A
notes: Variant of PR003379, L: N92A; human IgG1 L234A, L235A, G237A
- EC50, HEK293-hCD40-NFκB reporter, crosslinked (human CD40 [7]): 0.109 nM
- EC50, HEK293-hCD40-NFκB reporter, uncrosslinked (human CD40 [7]): 0.905 nM
- Fold (EC50 in the absence of crosslinking/EC50 in the presence of crosslinking) (human CD40 [7]): 8.28 fold
- Maximum fold, HEK293-hCD40-NFκB reporter, crosslinked (human CD40 [7]): 5.54 fold
- Maximum fold, HEK293-hCD40-NFκB reporter, uncrosslinked (human CD40 [7]): 4.92 fold
- EC50 (human CD40 [5]): 0.356 nM
- Maximum MFI (human CD40 [5]): 8870 MFI

B7: PR000960 (antibody, human IgG1, V domains shown)
VH: QVQLVESGGGVVQPGMSLRLSCAASGFNFSNYGMYWVRQAPGKGQEWVAIIWYDGTKKHYADSVKGRFTISRDNSKNTLYLEMNSLRVEDTAVYYCAKNRAIFGVVPDASDIRGQGTMVTVSS
notes: Fully human heavy-chain-only antibody (HCAb): VH fused to human IgG1 Fc; no light chain
- EC50 (human PD-L1 [8]): 0.79 nM
- Maximum MFI (human PD-L1 [8]): 23700 MFI
- EC50, Jurkat-NFAT-hPD1 reporter (human PD-L1 [9]): 0.31 nM
- Maximum (RLU), Jurkat-NFAT-hPD1 reporter (human PD-L1 [9]): 18400 RLU

B9: PR006247 (antibody, human IgG1, V domains shown)
VH: B7 VH with N28D, N31S, I50S, W52R, D54T, K57E, I102L, V106I
notes: HCAb; human IgG1 Fc; no light chain
- EC50 (human PD-L1 [8]): 1.01 nM
- Maximum MFI (human PD-L1 [8]): 410000 MFI
- EC50, Jurkat-NFAT-hPD1 reporter (human PD-L1 [9]): 0.15 nM
- Maximum (RLU), Jurkat-NFAT-hPD1 reporter (human PD-L1 [9]): 13400 RLU

B10: PR002082 (antibody, human IgG1, V domains shown)
VH: B7 VH with N28T, N31S
notes: HCAb; PTM variant of PR000960 (N28T, N31S); human IgG1 Fc; no light chain
- EC50 (human PD-L1 [8]): 0.86 nM and 1.31 nM
- EC50, Jurkat-NFAT-hPD1 reporter (human PD-L1 [9]): 0.217 nM
- Maximum (RLU), Jurkat-NFAT-hPD1 reporter (human PD-L1 [9]): 12100 RLU

B11: PR006245 (antibody, human IgG1, V domains shown)
VH: B7 VH with N28D, N31S, I50S, W52R, D54T, K57E
notes: as for B9
- EC50 (human PD-L1 [8]): 0.964 nM
- Maximum MFI (human PD-L1 [8]): 405000 MFI
- EC50, Jurkat-NFAT-hPD1 reporter (human PD-L1 [9]): 0.151 nM
- Maximum (RLU), Jurkat-NFAT-hPD1 reporter (human PD-L1 [9]): 13800 RLU

B12: PR006246 (antibody, human IgG1, V domains shown)
VH: B7 VH with N28D, N31S, I50S, W52R, D54T, K57E, V106I, A109D
notes: as for B9
- EC50 (human PD-L1 [8]): 0.764 nM
- Maximum MFI (human PD-L1 [8]): 396000 MFI
- EC50, Jurkat-NFAT-hPD1 reporter (human PD-L1 [9]): 0.132 nM
- Maximum (RLU), Jurkat-NFAT-hPD1 reporter (human PD-L1 [9]): 13700 RLU

B13: PR005878 (antibody, human IgG1, V domains shown)
VH: B7 VH with N28T, N31S, I50S, W52R, D54T, K57E, I102L, V106I, A109D
notes: as for B9
- EC50 (human PD-L1 [8]): 1.08 nM
- Maximum MFI (human PD-L1 [8]): 419000 MFI
- EC50, Jurkat-NFAT-hPD1 reporter (human PD-L1 [9]): 0.166 nM
- Maximum (RLU), Jurkat-NFAT-hPD1 reporter (human PD-L1 [9]): 13400 RLU

Next, values leading:

- EC50, HEK293-hCD40-NFκB reporter, + CHO-K1 (human CD40 [1]): 0.183 nM and 0.241 nM
- EC50, HEK293-hCD40-NFκB reporter, + CHO-K1/hPD-L1 (human CD40 [1]): 0.155 nM and 0.205 nM
- EC50 (human CD40 [2]): 0.936 nM
- EC50 (cynomolgus monkey CD40): 4.74 nM
- Maximum MFI (cynomolgus monkey CD40): 53400 MFI
- EC50 (human CD40 [3]): 3.02 nM
- Maximum MFI (human CD40 [3]): 5170 MFI
- Maximum MFI (cynomolgus monkey PD-L1): 94 MFI
- EC50 (human CD40 [4]): 2.58 nM
- Maximum MFI (human CD40 [4]): 13900 MFI
- EC50 (human CD40 [5]): 0.484 nM
- Maximum MFI (human CD40 [5]): 2450 MFI
- EC50, HEK293-hCD40-NFκB reporter, crosslinked (CHO-K1/hCD32B) (human CD40 [6]): 0.0413 nM
- EC50, HEK293-hCD40-NFκB reporter, uncrosslinked (CHO-K1) (human CD40 [6]): 0.163 nM
- Fold (EC50 in the absence of crosslinking/EC50 in the presence of crosslinking) (human CD40 [6]): 3.94 fold
B1: Selicrelumab (antibody, human IgG2, kappa, V domains shown)
VH: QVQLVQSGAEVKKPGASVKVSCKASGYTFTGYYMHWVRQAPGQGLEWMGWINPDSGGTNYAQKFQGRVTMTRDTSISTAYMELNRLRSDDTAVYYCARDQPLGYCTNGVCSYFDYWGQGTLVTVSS
VL: DIQMTQSPSSVSASVGDRVTITCRASQGIYSWLAWYQQKPGKAPNLLIYTASTLQSGVPSRFSGSGSGTDFTLTISSLQPEDFATYYCQQANIFPLTFGGGTKVEIKR
notes: Positive control anti-CD40 antibody; also called PR001028

- EC50, HEK293-hCD40-NFκB reporter, crosslinked (human CD40 [7]): 0.158 nM
- EC50, HEK293-hCD40-NFκB reporter, uncrosslinked (human CD40 [7]): 0.479 nM
- Fold (EC50 in the absence of crosslinking/EC50 in the presence of crosslinking) (human CD40 [7]): 3.03 fold
- Maximum fold, HEK293-hCD40-NFκB reporter, crosslinked (human CD40 [7]): 4.77 fold
- Maximum fold, HEK293-hCD40-NFκB reporter, uncrosslinked (human CD40 [7]): 4.61 fold
- EC50 (human CD40 [5]): 0.252 nM
- Maximum MFI (human CD40 [5]): 9200 MFI
B4: PR006497 (antibody, human IgG1, kappa, V domains shown)
VH: B2 VH
VL: B2 VL with N92Y
notes: Variant of PR003379, L: N92Y; human IgG1 L234A, L235A, G237A

- EC50, HEK293-hCD40-NFκB reporter, crosslinked (human CD40 [7]): 0.217 nM
- EC50, HEK293-hCD40-NFκB reporter, uncrosslinked (human CD40 [7]): 0.43 nM
- Fold (EC50 in the absence of crosslinking/EC50 in the presence of crosslinking) (human CD40 [7]): 1.98 fold
- Maximum fold, HEK293-hCD40-NFκB reporter, crosslinked (human CD40 [7]): 5.03 fold
- Maximum fold, HEK293-hCD40-NFκB reporter, uncrosslinked (human CD40 [7]): 4.43 fold
- EC50 (human CD40 [5]): 0.277 nM
- Maximum MFI (human CD40 [5]): 9300 MFI
B5: PR006496 (antibody, human IgG1, kappa, V domains shown)
VH: B2 VH
VL: B2 VL with N92F
notes: Variant of PR003379, L: N92F; human IgG1 L234A, L235A, G237A

- EC50 (human CD40 [5]): 0.386 nM
- Maximum MFI (human CD40 [5]): 11800 MFI
B6: PR006511 (antibody, human IgG1, kappa, V domains shown)
VH: B2 VH
VL: B2 VL with S93N
notes: Variant of PR003379, L: S93N; human IgG1 L234A, L235A, G237A

- EC50 (human PD-L1 [8]): 0.606 nM
- Maximum MFI (human PD-L1 [8]): 404000 MFI
- EC50, Jurkat-NFAT-hPD1 reporter (human PD-L1 [9]): 0.121 nM
- Maximum (RLU), Jurkat-NFAT-hPD1 reporter (human PD-L1 [9]): 14100 RLU
B8: PR006248 (antibody, human IgG1, V domains shown)
VH: B7 VH with N28D, N31S, I50S, W52R, D54T, K57E, I102L, V106I, A109D
notes: as for B9
